From the supplement of paper PMC10567573 come the findings set out here.

To fix the notation:
B1: IQUB (parent)
chain: EADYEDDSKIAFLMQLQDIQYLTE
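Note: lentivirally expressed fusions sorted by FACS into six bins by GFP to DsRed ratio, PSI derived from sequencing read proportions per bin multiplied by bin number.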

The variants in the series derive from B1. Nature of the series: protein stability index of a GFP-peptide fusion (GPS, HEK-293T) (PSI 1-6); higher = more stable. As to conditions: c terminus: a fixed tail appended.
EADYEDDSKIAFLMFLQDIQYLTE [Q15F]: the protein stability index is 1.77.
Regarding EADYEDDSKIAFLMCLQDIQYLTE [Q15C], the protein stability index was 2.09.
The value for EADYEDDSKIAFLMKLQDIQYLTE [Q15K] was 2.9; that for EADYEDDSKIAFLMNLQDIQYLTE [Q15N] was 2.84.
The value for EADYEDDSKIAFLMALQDIQYLTE [Q15A] was 2.61.
Take EADYEDDSKIAFLMRLQDIQYLTE [Q15R]: the protein stability index was 2.89.
Regarding EADYEDDSKIAFLMTLQDIQYLTE [Q15T], the protein stability index was 2.19.
EADYEDDSKIAFLMLLQDIQYLTE [Q15L]: the protein stability index amounted to 2.04.
The value for EADYEDDSKIAFLMELQDIQYLTE [Q15E] was 3.36; that for EADYEDDSKIAFLMILQDIQYLTE [Q15I] was 1.98; that for EADYEDDSKIAFLMHLQDIQYLTE [Q15H] was 2.44.
The value for EADYEDDSKIAFLMGLQDIQYLTE [Q15G] was 3.76.
To EADYEDDSKIAFLMDLQDIQYLTE [Q15D] belongs 3.1; to EADYEDDSKIAFLMVLQDIQYLTE [Q15V], 1.76; to EADYEDDSKIAFLMSLQDIQYLTE [Q15S], 2.46.
On to EADYEDDSKIAFLMMLQDIQYLTE [Q15M], for which the protein stability index amounted to 2.36.
The value for EADYEDDSKIAFLMPLQDIQYLTE [Q15P] was 3.39; that for EADYEDDSKIAFLMWLQDIQYLTE [Q15W] was 1.78.
Regarding EADYEDDSKIAFHMQLQDIQYLTE [L13H], the protein stability index turned out to be 4.15.
The value for EADYEDDSKIAFGMQLQDIQYLTE [L13G] was 4.29.
As to EADYEDDSKIAFFMQLQDIQYLTE [L13F], the protein stability index is 2.85.
To EADYEDDSKIAFPMQLQDIQYLTE [L13P] belongs 4.68; to EADYEDDSKIAFMMQLQDIQYLTE [L13M], 3.26; to EADYEDDSKIAFAMQLQDIQYLTE [L13A], 4.02.
The value for EADYEDDSKIAFSMQLQDIQYLTE [L13S] was 4.41; that for EADYEDDSKIAFNMQLQDIQYLTE [L13N] was 4.55; that for EADYEDDSKIAFKMQLQDIQYLTE [L13K] was 4.11.
As for EADYEDDSKIAFWMQLQDIQYLTE [L13W], the protein stability index stood at 3.51.
The value for EADYEDDSKIAFTMQLQDIQYLTE [L13T] was 4.3.
In the case of EADYEDDSKIAFQMQLQDIQYLTE [L13Q], the protein stability index worked out at 4.34.
For EADYEDDSKIAFRMQLQDIQYLTE [L13R], the protein stability index stood at 3.88.
The value for EADYEDDSKIAFIMQLQDIQYLTE [L13I] was 2.77; that for EADYEDDSKIAFDMQLQDIQYLTE [L13D] was 4.68.
The value for EADYEDDSKIAFYMQLQDIQYLTE [L13Y] was 2.84; that for EADYEDDSKIAFVMQLQDIQYLTE [L13V] was 3.12.
The value for EADYEDDSKIAFCMQLQDIQYLTE [L13C] was 3.5; that for EADYEDDSKIAFEMQLQDIQYLTE [L13E] was 4.54.
On to EADYEDDSKITFLMQLQDIQYLTE [A11T], for which the protein stability index was found to be 3.14.
To EADYEDDSKIWFLMQLQDIQYLTE [A11W] belongs 2.78.
As for EADYEDDSKIHFLMQLQDIQYLTE [A11H], the protein stability index is 2.97.
The value for EADYEDDSKISFLMQLQDIQYLTE [A11S] was 2.94; that for EADYEDDSKIKFLMQLQDIQYLTE [A11K] was 3.4.
The value for EADYEDDSKIEFLMQLQDIQYLTE [A11E] was 3.39.
On to EADYEDDSKIYFLMQLQDIQYLTE [A11Y], for which the protein stability index came to 2.02.
The value for EADYEDDSKILFLMQLQDIQYLTE [A11L] was 2.12; that for EADYEDDSKICFLMQLQDIQYLTE [A11C] was 2.54.
To EADYEDDSKIQFLMQLQDIQYLTE [A11Q] belongs 3.49; to EADYEDDSKIIFLMQLQDIQYLTE [A11I], 1.99; to EADYEDDSKINFLMQLQDIQYLTE [A11N], 3.77.
The value for EADYEDDSKIFFLMQLQDIQYLTE [A11F] was 2.38; that for EADYEDDSKIMFLMQLQDIQYLTE [A11M] was 2.66.
On to EADYEDDSKIVFLMQLQDIQYLTE [A11V], for which the protein stability index stood at 2.24.
To EADYEDDSKIDFLMQLQDIQYLTE [A11D] belongs 4.07.
The value for EADYEDDSKIPFLMQLQDIQYLTE [A11P] was 3.82.
To EADYEDDSKIRFLMQLQDIQYLTE [A11R] belongs 2.83.
Consider EADYEDDSKIGFLMQLQDIQYLTE [A11G], for which the protein stability index was found to be 3.41.
The value for EADYEDDSKIAVLMQLQDIQYLTE [F12V] was 3.54.
Regarding EADYEDDSKIACLMQLQDIQYLTE [F12C], the protein stability index is 4.29.
The value for EADYEDDSKIARLMQLQDIQYLTE [F12R] was 4.38; that for EADYEDDSKIAWLMQLQDIQYLTE [F12W] was 3.18.
To EADYEDDSKIASLMQLQDIQYLTE [F12S] belongs 4.61; to EADYEDDSKIADLMQLQDIQYLTE [F12D], 5.07; to EADYEDDSKIAELMQLQDIQYLTE [F12E], 5.06.
The value for EADYEDDSKIALLMQLQDIQYLTE [F12L] was 2.96.
For EADYEDDSKIAHLMQLQDIQYLTE [F12H], the protein stability index worked out at 4.62.
The value for EADYEDDSKIAQLMQLQDIQYLTE [F12Q] was 4.78; that for EADYEDDSKIAALMQLQDIQYLTE [F12A] was 3.89.
The value for EADYEDDSKIAILMQLQDIQYLTE [F12I] was 3.19; that for EADYEDDSKIANLMQLQDIQYLTE [F12N] was 4.33; that for EADYEDDSKIAKLMQLQDIQYLTE [F12K] was 4.51.
The value for EADYEDDSKIATLMQLQDIQYLTE [F12T] was 4.94; that for EADYEDDSKIAMLMQLQDIQYLTE [F12M] was 4.05; that for EADYEDDSKIAYLMQLQDIQYLTE [F12Y] was 3.73.
EADYEDDSKIAGLMQLQDIQYLTE [F12G]: the protein stability index came to 4.66.
The value for EADYEDDSKIAPLMQLQDIQYLTE [F12P] was 4.75; that for EADYEDDSKIAFLGQLQDIQYLTE [M14G] was 4.37; that for EADYEDDSKIAFLPQLQDIQYLTE [M14P] was 4.46.
To EADYEDDSKIAFLSQLQDIQYLTE [M14S] belongs 3.95; to EADYEDDSKIAFLCQLQDIQYLTE [M14C], 3.21; to EADYEDDSKIAFLNQLQDIQYLTE [M14N], 4.26.
Consider EADYEDDSKIAFLQQLQDIQYLTE [M14Q], for which the protein stability index was 4.23.
To EADYEDDSKIAFLKQLQDIQYLTE [M14K] belongs 3.77; to EADYEDDSKIAFLTQLQDIQYLTE [M14T], 4.04.
In the case of EADYEDDSKIAFLHQLQDIQYLTE [M14H], the protein stability index was found to be 3.96.
In the case of EADYEDDSKIAFLWQLQDIQYLTE [M14W], the protein stability index was 2.42.
To EADYEDDSKIAFLIQLQDIQYLTE [M14I] belongs 2.6.
The value for EADYEDDSKIAFLAQLQDIQYLTE [M14A] was 3.4; that for EADYEDDSKIAFLRQLQDIQYLTE [M14R] was 3.75; that for EADYEDDSKIAFLDQLQDIQYLTE [M14D] was 4.27.
EADYEDDSKIAFLEQLQDIQYLTE [M14E]: the protein stability index was 4.06.
Regarding EADYEDDSKIAFLLQLQDIQYLTE [M14L], the protein stability index was determined as 2.32.
The value for EADYEDDSKIAFLYQLQDIQYLTE [M14Y] was 2.92.
In the case of EADYEDDSKIAFLVQLQDIQYLTE [M14V], the protein stability index is 2.7.
The value for EADYEDDSKIAFLFQLQDIQYLTE [M14F] was 2.46.
